The values below come from patent publication US20240327535A1 (EISAI R AND D MANAGEMENT, published 2024).

Residue numbers refer to the chain shown, from its start.

The target of assay [1] is T1, extracellular domain of human BCMA (human, UniProt Q02223 1-54).
T1 construct: amine-linked to Octet AR2G tips; also called hsBCMA; BCMA (human)
T1 sequence: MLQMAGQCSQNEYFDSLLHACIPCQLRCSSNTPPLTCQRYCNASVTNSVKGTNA
Briefly: Octet BLI; Fab 200 nM.

For assay [2], the target named is T2, extracellular domain of rhesus monkey BCMA (rhesus monkey, UniProt F7FFA0 1-53).
T2 construct: extracellular domain; also called RhBCMA
As to the kind of experiment: Octet BLI; Fab 200 nM.

T2 sequence (F7FFA0 entry or part of it): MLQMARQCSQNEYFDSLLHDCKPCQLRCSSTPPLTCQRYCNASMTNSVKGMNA

B1: AB200-R1a-Fab_VH2 (Fab, V domains shown)
VH: QVQLVQSGAEVKKPGSSVKVSCKASGGTFSNYWMHWVRQAPGQGLEWMGATYRGHSDTYYNQKFQGRVTITADKSTSTAYMELSSLRSEDTAVYYCARGAVFHGYDVLDNWGQGTLVTVSS
VL: DIQMTQSPSSLSASVGDRVTITCSATQDISNYLNWYQQKPGKAPKLLIYFTSNLQSGVPSRFSGSGSGTDFTLTISSLQPEDFATYYCQQYRKLPWTFGQGTKLEIKR
For B1, the equilibrium dissociation constant (Kd) in assay [1] amounted to 2.85 nM; in assay [2], 11.1 nM.

B2: AB200-R1a-Fab_VH30 (Fab, V domains shown)
VH: B1 VH with F29Y, S56T, Q65K, V101I, F102Y, L108M
VL: B1 VL
As to B2, the dissociation constant Kd was found to be 22.3 nM in assay [1] and 28.2 nM in assay [2].

B3: AB200-R1a-Fab_VH13 (Fab, V domains shown)
VH: B1 VH with D57T, N61A, F64Y, Q65K, V101I, F102Y
VL: B1 VL
B3: the dissociation constant Kd in assay [1] is 5.38 nM; in assay [2], 12.9 nM.

B4: AB200-R1a-Fab_VH18 (Fab, V domains shown)
VH: B1 VH with R53K, Q65K, K74E, V101I, F102Y, D106E
VL: B1 VL
For the molecule B4, the dissociation constant (Kd) in assay [1] was 7.73 nM; in assay [2] it was 10.6 nM.

B5: AB200-R1a-Fab_VH57 (Fab, V domains shown)
VH: B1 VH with F29Y, W33Y, D57E, Q65K, V101I, F102Y
VL: B1 VL
Take B5: the equilibrium dissociation constant (Kd) in assay [1] was 11.1 nM; in assay [2], 12 nM.

B6: AB200-R1a-Fab_VH50 (Fab, V domains shown)
VH: B1 VH with Y52F, Q65K, G66S, F102Y
VL: B1 VL
Consider B6, for which the equilibrium dissociation constant (Kd) in assay [1] came out at 4.67 nM; in assay [2] it was 9.65 nM.

B7: AB200-R1a-Fab_VH31 (Fab, V domains shown)
VH: B1 VH with A50G, Y60F, Q65K, V101I, F102Y, Y105F
VL: B1 VL
On to B7, for which the dissociation constant Kd in assay [1] worked out at 9.06 nM; in assay [2] it was 19.2 nM.

B8: AB200-R1a-Fab_VH54 (Fab, V domains shown)
VH: B1 VH with S56G, Y59F, Q65K, V101I, F102Y, D109N
VL: B1 VL
As to B8, the dissociation constant Kd came to 12 nM in assay [1] and 20.8 nM in assay [2].

B9: AB200-R1a-Fab_VH17 (Fab, V domains shown)
VH: B1 VH with N31S, N61A, Q65K, V101I, F102Y, D106E
VL: B1 VL
Regarding B9, the Kd in assay [1] stood at 82.7 nM; in assay [2] it was 70.2 nM.

B10: AB200-R1a-Fab_VH35 (Fab, V domains shown)
VH: B1 VH with M34I, Y52F, R53K, Q65K, V101I, F102Y
VL: B1 VL
For B10, the Kd worked out at 8.5 nM in assay [1] and 9.49 nM in assay [2].

B11: AB200-R1a-Fab_VH59 (Fab, V domains shown)
VH: B1 VH with S25T, W33A, T51S, Q65K, V101I, F102Y
VL: B1 VL
With B11, the Kd was determined as 26.2 nM in assay [1] and 28.3 nM in assay [2].

B12: AB200-R1a-Fab_VH44 (Fab, V domains shown)
VH: B1 VH with A50G, K63R, Q65K, V101I, F102Y, V107I
VL: B1 VL
B12: the dissociation constant Kd in assay [1] was found to be 29 nM; in assay [2], 8.61 nM.

B13: AB200-R1a-Fab_VH46 (Fab, V domains shown)
VH: B1 VH with Y59N, F64Y, Q65K, V101I, F102Y, H103N
VL: B1 VL
On to B13, for which the results for the Kd in assay [1] and in assay [2] were 11.6 nM and 20 nM, respectively.

B14: AB200-R1a-Fab_VH23 (Fab, V domains shown)
VH: B1 VH with W33Y, Y59F, N61A, Q65K, V101I, F102Y
VL: B1 VL
For the molecule B14, the values for the Kd in assay [1] and in assay [2] were 20.4 nM and 19.9 nM, respectively.

B15: AB200-R1a-Fab_VH5 (Fab, V domains shown)
VH: B1 VH with T58S, Y59N, Q62N, Q65K, V101I, F102Y
VL: B1 VL
Turning to B15, the Kd in assay [1] was 21.1 nM; in assay [2], 23.4 nM.

B16: AB200-R1a-Fab_VH20 (Fab, V domains shown)
VH: B1 VH with Y52I, D57Q, V101I, F102Y
VL: B1 VL
In the case of B16, the dissociation constant Kd in assay [1] was 10.5 nM; in assay [2] it was 15.1 nM.

B17: AB200-R1a-Fab_VH26 (Fab, V domains shown)
VH: B1 VH with T28S, G54I, Y59F, Q65K, V101I, F102Y
VL: B1 VL
Regarding B17, the Kd is 0.926 nM in assay [1] and 2.31 nM in assay [2].

B18: AB200-R1a-Fab_VH34 (Fab, V domains shown)
VH: B1 VH with W33Y, M34L, Q65K, V101I, F102Y, H103N
VL: B1 VL
Turning to B18, the Kd in assay [1] came to 18.9 nM; in assay [2], 13.2 nM.

B19: AB200-R1a-Fab_VH56 (Fab, V domains shown)
VH: B1 VH with M34I, Q65R, A100T, V101I, F102Y
VL: B1 VL
Consider B19, for which the Kd is 20.7 nM in assay [1] and 18 nM in assay [2].

B20: AB200-R1a-Fab_VH27 (Fab, V domains shown)
VH: B1 VH with S25T, T51I, Q65R, V101I, F102Y
VL: B1 VL
In the case of B20, the Kd stood at 3.8 nM in assay [1] and 7.84 nM in assay [2].

B21: AB200-R1a-Fab_VH38 (Fab, V domains shown)
VH: B1 VH with Y60F, Q65K, V101I, H103N
VL: B1 VL
B21: the results for the dissociation constant Kd in assay [1] and in assay [2] were 4.12 nM and 12.1 nM, respectively.

B22: AB200-R1a-Fab_VH4 (Fab, V domains shown)
VH: B1 VH with S25T, D57N, N61D, Q65K, V101I, F102Y
VL: B1 VL
As to B22, the Kd amounted to 5.45 nM in assay [1] and 13.7 nM in assay [2].

B23: AB200-R1a-Fab_VH48 (Fab, V domains shown)
VH: B1 VH with N31D, K63R, Q65K, V101I, F102Y, L108M
VL: B1 VL
On to B23, for which the values for the Kd in assay [1] and in assay [2] were 34.5 nM and 25 nM, respectively.

B24: AB200-R1a-Fab_VH49 (Fab, V domains shown)
VH: B1 VH with M34I, T51S, Q65K, V101I, F102Y, L108I
VL: B1 VL
For the molecule B24, the equilibrium dissociation constant (Kd) in assay [1] is 6.72 nM; in assay [2], 15.6 nM.

B25: AB200-R1a-Fab_VH21 (Fab, V domains shown)
VH: B1 VH with W33A, H55Q, F64Y, Q65K, V101I, F102Y
VL: B1 VL
On to B25, for which the figures for the Kd in assay [1] and in assay [2] were 5.23 nM and 11.1 nM, respectively.

B26: AB200-R1a-Fab_VH19 (Fab, V domains shown)
VH: B1 VH with T28S, H35Q, Q65K, A100S, V101I, F102Y
VL: B1 VL
Take B26: the Kd in assay [1] turned out to be 18.5 nM; in assay [2], 35.6 nM.

B27: AB200-R1a-Fab_VH37 (Fab, V domains shown)
VH: B1 VH with S30T, R53K, Q65R, V101I, F102Y
VL: B1 VL
In the case of B27, the dissociation constant Kd stood at 5.28 nM in assay [1] and 10.4 nM in assay [2].

B28: AB200-R1a-Fab_VH33 (Fab, V domains shown)
VH: B1 VH with S30T, Y32F, H55Q, Q65K, V101I, F102Y
VL: B1 VL
In the case of B28, the dissociation constant Kd in assay [1] worked out at 1.43 nM; in assay [2], 5.12 nM.

B29: AB200-R1a-Fab_VH42 (Fab, V domains shown)
VH: B1 VH with D57T, Q65K, A100S, V101I, F102Y, L108M
VL: B1 VL
Take B29: the Kd in assay [1] was 28.4 nM; in assay [2] it was 15.5 nM.

B30: AB200-R1a-Fab_VH36 (Fab, V domains shown)
VH: B1 VH with Y52F, Q62H, Q65K, V101I, F102Y, Y105F
VL: B1 VL
On to B30, for which the values for the Kd in assay [1] and in assay [2] were 28.1 nM and 45.4 nM, respectively.

B31: AB200-R1a-Fab_VH40 (Fab, V domains shown)
VH: B1 VH with Y32F, Q62H, Q65K, V101I, F102Y, D109E
VL: B1 VL
Turning to B31, the Kd stood at 17.2 nM in assay [1] and 45.3 nM in assay [2].

B32: AB200-R1a-Fab_VH24 (Fab, V domains shown)
VH: B1 VH with S30T, D57N, Q65K, V101I, F102Y, L108I
VL: B1 VL
For the molecule B32, the dissociation constant (Kd) in assay [1] worked out at 13.1 nM; in assay [2], 24.5 nM.

B33: AB200-R1a-Fab_VH8 (Fab, V domains shown)
VH: B1 VH with G54S, Q65K, K74E, V101I
VL: B1 VL
For the molecule B33, the values for the dissociation constant (Kd) in assay [1] and in assay [2] were 0.948 nM and 3.14 nM, respectively.

B34: AB200-R1a-Fab_VH32 (Fab, V domains shown)
VH: B1 VH with G54S, Q65K, G66S, V101I, F102Y, L108I
VL: B1 VL
As to B34, the results for the dissociation constant Kd in assay [1] and in assay [2] were 1.09 nM and 4.17 nM, respectively.

B35: AB200-R1a-Fab_VH16 (Fab, V domains shown)
VH: B1 VH with N31T, G54I, Q65K, K74E, V101I, F102Y
VL: B1 VL
As for B35, the dissociation constant (Kd) is 14.3 nM in assay [1] and 15.2 nM in assay [2].

B36: AB200-R1a-Fab_VH45 (Fab, V domains shown)
VH: B1 VH with Q62N, Q65K, V101I, F102Y, D109E, N110D
VL: B1 VL
Consider B36, for which the equilibrium dissociation constant (Kd) was found to be 21.1 nM in assay [1] and 44.9 nM in assay [2].

B37: AB200-R1a-Fab_VH15 (Fab, V domains shown)
VH: B1 VH with F29Y, T58A, K63R, Q65K, V101I, F102Y
VL: B1 VL
In the case of B37, the values for the equilibrium dissociation constant (Kd) in assay [1] and in assay [2] were 11.7 nM and 17.1 nM, respectively.

B38: AB200-R1a-Fab_VH52 (Fab, V domains shown)
VH: B1 VH with T28S, N31D, D57T, Q65K, V101I, F102Y
VL: B1 VL
With B38, the dissociation constant Kd was determined as 18 nM in assay [1] and 24.6 nM in assay [2].
